Residue numbers refer to the chain shown, from its start. Names may count otherwise.
B1: E246S: mutated TriA variant of SEQ ID NO: 2 (protein)
chain: MQTLSIQHGTLVTMDQYRRVLGDSWVHVQDGRIVALGVHAESVPPPADRVIDARGKVVLPGFINAHTHVNQILLRGGPSHGRQLYDWLFNVLYPGQKAMRPEDVAVAVRLYCAEAVRSGITTINDNADSAIYPGNIEAAMAVYGEVGVRVVYARMFFDRMDGRIQGYVDALKARSPQVELCSIMEETAVAKDRITALSDQYHGTAGGRISVWPAPAITPAVTVEGMRWAQAFARDRAVMWTLHMASSDHDERLHWMSPAEYMECYGLLDERLQVAHCVYFDRKDVRLLHRHNVKVASQVVSNAYLGSGVAPVPEMVERGMAVGIGTDDGNCNDSVNMIGDMKFMAHIHRAVHRDADVLTPEKILEMATIDGARSLGMDHEIGSIETGKRADLILLDLRHPQTTPHHHLAATIVFQAYGNEVDTVLIDGNVVMENRRLSFLPPERELAFLEEAQSRATAILQRANMVANPAWRSL
modifications: Pseudomonas
B2: S247G: mutated TriA variant of SEQ ID NO: 2 (protein)
chain: B1 chain with S246E, S247G
modifications: Pseudomonas
B3: N70V: mutated TriA variant of SEQ ID NO: 2 (protein)
chain: B1 chain with N70V, S246E
modifications: Pseudomonas
B4: N70G: mutated TriA variant of SEQ ID NO: 2 (protein)
chain: B1 chain with N70G, S246E
modifications: Pseudomonas
B5: D248S: mutated TriA variant of SEQ ID NO: 2 (protein)
chain: B1 chain with S246E, D248S
modifications: Pseudomonas
B6: H249V: mutated TriA variant of SEQ ID NO: 2 (protein)
chain: B1 chain with S246E, H249V
modifications: Pseudomonas
B7: H249N: mutated TriA variant of SEQ ID NO: 2 (protein)
chain: B1 chain with S246E, H249N
modifications: Pseudomonas
B8: H249I: mutated TriA variant of SEQ ID NO: 2 (protein)
chain: B1 chain with S246E, H249I
modifications: Pseudomonas
B9: E246D: mutated TriA variant of SEQ ID NO: 2 (protein)
chain: B1 chain with S246D
modifications: Pseudomonas
B10: D250E: mutated TriA variant of SEQ ID NO: 2 (protein)
chain: B1 chain with S246E, D250E
modifications: Pseudomonas
B11: S247N: mutated TriA variant of SEQ ID NO: 2 (protein)
chain: B1 chain with S246E, S247N
modifications: Pseudomonas
B12: S247V: mutated TriA variant of SEQ ID NO: 2 (protein)
chain: B1 chain with S246E, S247V
modifications: Pseudomonas
B13: S247P: mutated TriA variant of SEQ ID NO: 2 (protein)
chain: B1 chain with S246E, S247P
modifications: Pseudomonas
B14: S247A: mutated TriA variant of SEQ ID NO: 2 (protein)
chain: B1 chain with S246E, S247A
modifications: Pseudomonas
B15: E246T: mutated TriA variant of SEQ ID NO: 2 (protein)
chain: B1 chain with S246T
modifications: Pseudomonas
B16: D248G: mutated TriA variant of SEQ ID NO: 2 (protein)
chain: B1 chain with S246E, D248G
modifications: Pseudomonas
B17: E246Q: mutated TriA variant of SEQ ID NO: 2 (protein)
chain: B1 chain with S246Q
modifications: Pseudomonas
B18: D250N: mutated TriA variant of SEQ ID NO: 2 (protein)
chain: B1 chain with S246E, D250N
modifications: Pseudomonas
B19: D248N: mutated TriA variant of SEQ ID NO: 2 (protein)
chain: B1 chain with S246E, D248N
modifications: Pseudomonas
B20: E251D: mutated TriA variant of SEQ ID NO: 2 (protein)
chain: B1 chain with S246E, E251D
modifications: Pseudomonas

Type: biochemical
Details: pH 7.2
Outline: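 TriA variants, N-His-tagged, were expressed in E. coli BL21(DE3) Gold with groEL/groES chaperones and purified by Ni-IDA affinity. Enzyme in 25 mM sodium phosphate pH 7.2 was incubated with azine substrates at 1 nM to 10 nM, 30° C. Products were identified by UPLC-HR-MS.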

First: B1
Second: B2
The “Degradation in % of 6-cyclopentyl-N4-(2,3,4,5,6-pentafluorophenyl)-1,3,5-triazine-2,4-diamine” value of the first is lower: 1% for the first, 2% for the second.

Going from B3 to B4, the “Degradation in % of 6-cyclopentyl-N4-(2,3,4,5,6-pentafluorophenyl)-1,3,5-triazine-2,4-diamine” value falls from 4% to 0%.

Going from B5 to B6, the “Degradation in % of 6-cyclopentyl-N4-(2,3,4,5,6-pentafluorophenyl)-1,3,5-triazine-2,4-diamine” value falls from 3% to 0%.

First: B7
Second: B8
The “Degradation in % of 6-cyclopentyl-N4-(2,3,4,5,6-pentafluorophenyl)-1,3,5-triazine-2,4-diamine” value of the first is lower: 0% for the first, 1% for the second.

Compared with B9, B10 is lower in “Degradation in % of 6-cyclopentyl-N4-(2,3,4,5,6-pentafluorophenyl)-1,3,5-triazine-2,4-diamine” value: 5% for the first, 2% for the second.

B11 and B12 are the same in “Degradation in % of 6-cyclopentyl-N4-(2,3,4,5,6-pentafluorophenyl)-1,3,5-triazine-2,4-diamine” value: 2% for the first, 2% for the second.

B13 and B14 are the same in “Degradation in % of 6-cyclopentyl-N4-(2,3,4,5,6-pentafluorophenyl)-1,3,5-triazine-2,4-diamine” value: 0% for the first, 0% for the second.

Going from B15 to B16, the “Degradation in % of 6-cyclopentyl-N4-(2,3,4,5,6-pentafluorophenyl)-1,3,5-triazine-2,4-diamine” value falls from 3% to 0%.

Compared with B17, B18 is higher in “Degradation in % of 6-cyclopentyl-N4-(2,3,4,5,6-pentafluorophenyl)-1,3,5-triazine-2,4-diamine” value: 0% for the first, 1% for the second.

First: B19
Second: B20
The “Degradation in % of 6-cyclopentyl-N4-(2,3,4,5,6-pentafluorophenyl)-1,3,5-triazine-2,4-diamine” value of the first is lower: 4% for the first, 35% for the second.

First: B1
Second: B2
The “Degradation in % of Melamine” value of the first is lower: 0% for the first, 2% for the second.

B3 and B4 are the same in “Degradation in % of Melamine” value: 0% for the first, 0% for the second.

First: B5
Second: B6
The “Degradation in % of Melamine” value of the first is lower: 20% for the first, 100% for the second.

Going from B7 to B8, the “Degradation in % of Melamine” value rises from 1% to 100%.

Compared with B9, B10 is higher in “Degradation in % of Melamine” value: 0% for the first, 3% for the second.

First: B11
Second: B12
The “Degradation in % of Melamine” value of the first is lower: 0% for the first, 3% for the second.

Going from B13 to B14, the “Degradation in % of Melamine” value falls from 3% to 1%.

Compared with B15, B16 is higher in “Degradation in % of Melamine” value: 0% for the first, 7% for the second.

Going from B17 to B18, the “Degradation in % of Melamine” value falls from 4% to 3%.

Compared with B19, B20 is higher in “Degradation in % of Melamine” value: 11% for the first, 100% for the second.
